Experimental data taken from the supplement of paper PMC10126150.
± gives the standard deviation of the averaged measurements.

Test system: ATP
Experiment: switch fluorescence ratio, 500 uM ATP over buffer (Cy3 cluster intensity, sum of 5 cycles each) (fold (ratio)); higher = stronger signal-on switching upon ATP binding; sequences stand for … in TCGTCGGCAGCGTCAGATGTGTATAAGAGACAGTTTTTTTTTTTTTTTTTTTTTTTTT…TC
Conditions: aptamer strand: ATP DNA aptamer (quencher-CACCTGGGGGAGTATTGCGGAGGAAGG + anchor), 100 nM annealed; ATP concentration: 500 uM
Procedure, shortened: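 Clusters with intensities outside 100-1000 RFU were excluded. The remaining Cy3-labelled switching-strand clusters on a modified Illumina MiSeq flow-cell had been annealed to 100 nM quencher-labelled ATP aptamer and imaged in selection buffer, then after 15 min with 500 uM ATP at 22 °C, for five cycles separated by NaOH stripping and re-annealing. The fluorescence ratio, averaged per switch-domain sequence, is each cluster's summed target-cycle Cy3 intensity over its summed buffer-cycle Cy3 intensity.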
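Note: ATP exposure 15 min at 22 °C before imaging.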

Row | Sequence | switch fluorescence ratio
1 | AGTAATTTTG | 1.01 ± 0.065
2 | AGTAATTTTT | 1 ± 0.018
3 | AGTAGAGCCT | 1.061 ± 0.0069
4 | AGTAGAGGGA | 0.995 ± 0.019
5 | AGTAGAGTGT | 0.995 ± 0.04
6 | AGTAGATTCC | 1.042 ± 0.01
7 | AGTAGATTGG | 0.995 ± 0.028
8 | AGTAGCAAAT | 1.2 ± 0.13
9 | AGTAGGAAGG | 1.01 ± 0.019
10 | AGTAGGCAAA | 1.01 ± 0.014
11 | AGTAGGCAAG | 1 ± 0.035
12 | AGTAGGCAGC | 1.01 ± 0.033
13 | AGTAGGCGCT | 1.01 ± 0.048
14 | AGTAGGGCTC | 1 ± 0.046
15 | AGTAGGGGGA | 0.9912 ± 0.0034
16 | AGTAGGGGT | 1.02 ± 0.054
17 | AGTAGGGTGT | 0.968 ± 0.029
18 | AGTAGGTTTT | 1.04 ± 0.078
19 | AGTAGTATCT | 0.981 ± 0.03
20 | AGTAGTGGGT | 1.02 ± 0.056
21 | AGTAGTTATA | 1.03 ± 0.093
22 | AGTAGTTGCC | 1.014 ± 0.0021

Row | Sequence | switch fluorescence ratio
23 | AGTATAAAAT | 1.01 ± 0.018
24 | AGTATAGACC | 0.983 ± 0.01
25 | AGTATAGAGT | 1.01 ± 0.037
26 | AGTATAGGGG | 1.006 ± 0.007
27 | AGTATATAGG | 0.986 ± 0.018
28 | AGTATATGGG | 0.988 ± 0.023
29 | AGTATCACAG | 0.9621 ± 0.0047
30 | AGTATCTTTA | 0.9913 ± 0.0096
31 | AGTATGAGGT | 0.98 ± 0.012
32 | AGTATGCATA | 0.951 ± 0.016
33 | AGTATGTATG | 1.02 ± 0.024
34 | AGTATGTTTT | 0.995 ± 0.0076
35 | AGTATTGCAG | 0.9322 ± 0.002
36 | AGTATTTGGT | 1 ± 0.025
37 | AGTATTTGTA | 1 ± 0.02
38 | AGTATTTTGG | 1.01 ± 0.018
39 | AGTCAGATGG | 0.981 ± 0.025
40 | AGTCAGGGGG | 1 ± 0.028
41 | AGTCAGTTTT | 1.024 ± 0.0078
42 | AGTCATGAAA | 1.11 ± 0.12
43 | AGTCATGTGG | 1.01 ± 0.019
44 | AGTCCAATGT | 0.993 ± 0.021

Row | Sequence | switch fluorescence ratio
45 | AGTCCCAAGG | 1.13 ± 0.2
46 | AGTCCGGAGT | 1.05 ± 0.023
47 | AGTCCGGGTA | 1.08 ± 0.17
48 | AGTCGAGCTA | 0.986 ± 0.021
49 | AGTCGGACTT | 0.993 ± 0.01
50 | AGTCGGCTGT | 0.99449 ± 0.00015
51 | AGTCGTTGGG | 0.984 ± 0.015
52 | AGTCTAGGGC | 1.04 ± 0.017
53 | AGTCTATCTG | 0.964 ± 0.03
54 | AGTCTGCTCG | 1 ± 0.018
55 | AGTCTGGATC | 0.9959 ± 0.0084
56 | AGTCTGGGTA | 0.965 ± 0.016
57 | AGTCTGTCGT | 0.98 ± 0.039
58 | AGTCTTAGGG | 0.972 ± 0.023
59 | AGTCTTCTGG | 1.01 ± 0.026
60 | AGTCTTTTTG | 0.999 ± 0.03
61 | AGTGAAAATG | 1.05 ± 0.029
62 | AGTGAAAATT | 1 ± 0.038
63 | AGTGAGCTGA | 0.9769 ± 0.0069
64 | AGTGAGCTTG | 0.9818 ± 0.0038
65 | AGTGAGGCGC | 1.01 ± 0.024
66 | AGTGAGTCTG | 0.995 ± 0.053

Row | Sequence | switch fluorescence ratio
67 | AGTGATATTA | 1.01 ± 0.022
68 | AGTGATGAAG | 0.996 ± 0.037
69 | AGTGATGTGT | 1 ± 0.017
70 | AGTGCAGAGA | 0.989 ± 0.028
71 | AGTGCCCAGG | 2.4 ± 1.6
72 | AGTGCGATGT | 0.988 ± 0.016
73 | AGTGCGTCTC | 0.975 ± 0.012
74 | AGTGCTTGAG | 0.977 ± 0.043
75 | AGTGGAACTT | 0.976 ± 0.036
76 | AGTGGAGGGC | 1.03 ± 0.036
77 | AGTGGAGTCA | 1.02 ± 0.035
78 | AGTGGCATAG | 0.996 ± 0.022
79 | AGTGGGATAA | 1.11 ± 0.099
80 | AGTGGGCTTT | 0.996 ± 0.037
81 | AGTGGGGATA | 0.986 ± 0.039
82 | AGTGGGGCGT | 1 ± 0.016
83 | AGTGGGGGG | 1.0071 ± 0.001
84 | AGTGGGGGGG | 0.991 ± 0.049
85 | AGTGGGGGGT | 0.991 ± 0.03
